B1: NLV2 TCR alpha chain (CDR3α only) (parent)
chain: AGPMKTSYDKVI

The first experiment covers variants of B1. Description: T-Switch: Jurkat TCRβ−/− cells expressing a CDR3 saturation-mutagenesis library, stained with two peptide-HLA-A*02:01 tetramers (original and novel peptide) plus anti-CD3, FACS-sorted into four gates, gDNA sequenced. As to conditions: with both tetramers (double-negative gate, binds neither): HLA-A*02:01 with … and with …, tetramers 1 µg/mL, 30 min on ice, SP, DP and SW gates expanded about 10 days between rounds ('two to three rounds of selection' in the Methods), gate DN: OPPOSITE: higher = more of the variant in the gate that binds neither peptide = LESS binding (or no expression; inferred). Fold enrichment of the CDR3 variant in one FACS gate of a two-tetram, unresolved parent, parent is a CDR3 fragment, scale: fold enrichment, numbering: sequential-on-construct, sequence starts at 1.
In the case of […] (CDR3 as printed); P3K derived by comparing it with the table's wild-type CDR3 AGPMKTSYDKVI, the enrichment came out at 1.01.
Still for that read-out and setting: next, […] (CDR3 as printed); A1N derived by comparing it with the table's wild-type CDR3 AGPMKTSYDKVI: 0.847; […] (CDR3 as printed); K5P derived by comparing it with the table's wild-type CDR3 AGPMKTSYDKVI: 0.356; […] (CDR3 as printed); M4G derived by comparing it with the table's wild-type CDR3 AGPMKTSYDKVI: 0.783.
Still for that read-out and setting: with […] (CDR3 as printed); P3Y derived by comparing it with the table's wild-type CDR3 AGPMKTSYDKVI the figure was 1.08; with […] (CDR3 as printed); Y8C derived by comparing it with the table's wild-type CDR3 AGPMKTSYDKVI, 1.27; with […] (CDR3 as printed); G2E derived by comparing it with the table's wild-type CDR3 AGPMKTSYDKVI, 0.844.
For […] (CDR3 as printed); K5G derived by comparing it with the table's wild-type CDR3 AGPMKTSYDKVI, the enrichment was 0.602.
For […] (CDR3 as printed); I12F derived by comparing it with the table's wild-type CDR3 AGPMKTSYDKVI, the enrichment was determined as 1.16.
On to […] (CDR3 as printed); Y8F derived by comparing it with the table's wild-type CDR3 AGPMKTSYDKVI, for which the enrichment came out at 1.1.
Take […] (CDR3 as printed); M4K derived by comparing it with the table's wild-type CDR3 AGPMKTSYDKVI: the enrichment amounted to 0.454.
With […] (CDR3 as printed); I12Y derived by comparing it with the table's wild-type CDR3 AGPMKTSYDKVI, the enrichment worked out at 1.06.
On the same count and under the same terms, with […] (CDR3 as printed); T6Y derived by comparing it with the table's wild-type CDR3 AGPMKTSYDKVI the figure was 1.48; with […] (CDR3 as printed); V11A derived by comparing it with the table's wild-type CDR3 AGPMKTSYDKVI, 1.13.
As for […] (CDR3 as printed); S7F derived by comparing it with the table's wild-type CDR3 AGPMKTSYDKVI, the enrichment is 1.22.
As for […] (CDR3 as printed); M4A derived by comparing it with the table's wild-type CDR3 AGPMKTSYDKVI, the enrichment was 0.697.
Still for that read-out and setting: with […] (CDR3 as printed); I12L derived by comparing it with the table's wild-type CDR3 AGPMKTSYDKVI the figure was 0.907; with […] (CDR3 as printed); A1W derived by comparing it with the table's wild-type CDR3 AGPMKTSYDKVI, 0.77; with […] (CDR3 as printed); K5M derived by comparing it with the table's wild-type CDR3 AGPMKTSYDKVI, 0.901.
Still for that read-out and setting: next, […] (CDR3 as printed); T6A derived by comparing it with the table's wild-type CDR3 AGPMKTSYDKVI: 0.82; […] (CDR3 as printed); I12K derived by comparing it with the table's wild-type CDR3 AGPMKTSYDKVI: 0.703.
With […] (CDR3 as printed); V11N derived by comparing it with the table's wild-type CDR3 AGPMKTSYDKVI, the enrichment turned out to be 1.11.
Still for that read-out and setting: next, […] (CDR3 as printed); Y8G derived by comparing it with the table's wild-type CDR3 AGPMKTSYDKVI: 1.22; […] (CDR3 as printed); G2Q derived by comparing it with the table's wild-type CDR3 AGPMKTSYDKVI: 0.677; […] (CDR3 as printed); P3E derived by comparing it with the table's wild-type CDR3 AGPMKTSYDKVI: 1.15.

Staying with this experiment, now noted: with both tetramers (double-positive gate): HLA-A*02:01 with … and with …, tetramers 1 µg/mL, 30 min on ice, SP, DP and SW gates expanded about 10 days between rounds ('two to three rounds of selection' in the Methods), gate DP: higher = more of the variant in the gate that binds both peptides. Fold enrichment of the CDR3 variant in one FACS gate of a two-tetramer stain. SP/DP/SW gates were expanded and re-sorted bef, unresolved parent, parent is a CDR3 fragment, scale: fold enrichment, numbering: sequential-on-construct, sequence starts at 1.
In the case of […] (CDR3 as printed); P3K derived by comparing it with the table's wild-type CDR3 AGPMKTSYDKVI, the enrichment was determined as 0.
Consider […] (CDR3 as printed); A1N derived by comparing it with the table's wild-type CDR3 AGPMKTSYDKVI, for which the enrichment came out at 0.
Same read-out and setting: next, […] (CDR3 as printed); K5P derived by comparing it with the table's wild-type CDR3 AGPMKTSYDKVI: 0.
Still for that read-out and setting: with […] (CDR3 as printed); M4G derived by comparing it with the table's wild-type CDR3 AGPMKTSYDKVI the figure was 0; with […] (CDR3 as printed); P3Y derived by comparing it with the table's wild-type CDR3 AGPMKTSYDKVI, 0.
Same read-out and setting: with […] (CDR3 as printed); Y8C derived by comparing it with the table's wild-type CDR3 AGPMKTSYDKVI the figure was 0; with […] (CDR3 as printed); G2E derived by comparing it with the table's wild-type CDR3 AGPMKTSYDKVI, 0.
With […] (CDR3 as printed); K5G derived by comparing it with the table's wild-type CDR3 AGPMKTSYDKVI, the enrichment is 0.
Still for that read-out and setting: next, […] (CDR3 as printed); I12F derived by comparing it with the table's wild-type CDR3 AGPMKTSYDKVI: 0.
Still for that read-out and setting: next, […] (CDR3 as printed); Y8F derived by comparing it with the table's wild-type CDR3 AGPMKTSYDKVI: 0; […] (CDR3 as printed); M4K derived by comparing it with the table's wild-type CDR3 AGPMKTSYDKVI: 0.
Consider […] (CDR3 as printed); I12Y derived by comparing it with the table's wild-type CDR3 AGPMKTSYDKVI, for which the enrichment was 0.
Take […] (CDR3 as printed); T6Y derived by comparing it with the table's wild-type CDR3 AGPMKTSYDKVI: the enrichment was 0.
Consider […] (CDR3 as printed); V11A derived by comparing it with the table's wild-type CDR3 AGPMKTSYDKVI, for which the enrichment amounted to 0.
Still for that read-out and setting: with […] (CDR3 as printed); S7F derived by comparing it with the table's wild-type CDR3 AGPMKTSYDKVI the figure was 0; with […] (CDR3 as printed); M4A derived by comparing it with the table's wild-type CDR3 AGPMKTSYDKVI, 0; with […] (CDR3 as printed); I12L derived by comparing it with the table's wild-type CDR3 AGPMKTSYDKVI, 0.
Still for that read-out and setting: with […] (CDR3 as printed); A1W derived by comparing it with the table's wild-type CDR3 AGPMKTSYDKVI the figure was 0; with […] (CDR3 as printed); K5M derived by comparing it with the table's wild-type CDR3 AGPMKTSYDKVI, 0.
As for […] (CDR3 as printed); T6A derived by comparing it with the table's wild-type CDR3 AGPMKTSYDKVI, the enrichment came to 0.
As to […] (CDR3 as printed); I12K derived by comparing it with the table's wild-type CDR3 AGPMKTSYDKVI, the enrichment was found to be 0.
The same measure, in the same setting: next, […] (CDR3 as printed); V11N derived by comparing it with the table's wild-type CDR3 AGPMKTSYDKVI: 0.
As for […] (CDR3 as printed); Y8G derived by comparing it with the table's wild-type CDR3 AGPMKTSYDKVI, the enrichment amounted to 0.
[…] (CDR3 as printed); G2Q derived by comparing it with the table's wild-type CDR3 AGPMKTSYDKVI: the enrichment was determined as 0.
Same read-out and setting: with […] (CDR3 as printed); P3E derived by comparing it with the table's wild-type CDR3 AGPMKTSYDKVI the figure was 0.

For the origin of these results see article PMC13397619.
